Source: US20260139067A1 (BETH ISRAEL DEACONESS MEDICAL CENTER, published 2026)

Tests used:
[1] = molecular target: T1, CDCP1 expressed on the surface of human cells (PC3, H1299, H2009 and others) (human, UniProt Q9H5V8 30-836); test: flow cytometry on H2009 cells (lung adenocarcinoma), anti-human IgG Fc R-PE detection
T1 construct: Endogenous CDCP1 of human cell lines; also called CDCP1 antigen expressed on PC3 cells; CDCP1 expressing cells
Protocol: (§1) Binding was evaluated on three human cancer cell lines, PC3 (prostate cancer), H1299 (Non-small cell lung cancer), and H2009 (lung adenocarcinoma). To accomplish this, adherent cells were first dissociated with Cell Dissociation Buffer (Life Technologies #13150-016), pelleted by centrifugation, and resuspended by FACS buffer (PBS-CMF, 3% FBS, 0.1% weight/volume (w/v) sodium azide). […] Following a thirty-minute incubation on ice in dark, the cells were washed twice, combined with eFluor 660 Fixable Viability Dye (eBioscience #65-0864-18), and fixed (BD Cytofix, BD Biosciences #554655). Stained cells were acquired on a LSR Fortessa instrument using BD FACSDiva Software. Background subtracted gMFI of viable cells was determined using FlowJo software and plotted using Graphpad Prism software to generate EC₅₀ s (FIGS. 26A and 26B).

[2] = molecular target: T2, recombinant human CDCP1 extracellular domain (CDCP1-ECD) (human, UniProt Q9H5V8 30-663); test: SPR (Biacore T200), antibody captured on anti-human IgG, CDCP1-ECD injected; experiment 2
T2 construct: Expressed in HEK293 and chemically biotinylated for the phage selection; also called human CDCP1 ECD; human CDCP1-ECD
Protocol: (§2) Specifically, the binding kinetics of anti-CDCP1 antibodies against recombinant human, cynomologus monkey and mouse CDCP1-ECD were determined using surface plasmon resonance (SPR) and a Biacore T200 instrument (GE Healthcare). An anti-human IgG antibody was amine coupled onto a CM5 carboxymethylated dextran sensor chip surface (GE Healthcare), using the manufacturer's recommendations, to densities of approximately 10,000-13,000 response units (RU). Each anti-CDCP1 antibody was diluted to 0.5 μg/mL in 10 mM HEPES pH 7.4, 0.15 M NaCl, 3 mM EDTA, 0.05% P-20 (HBS-EP+) and captured for about 20-23 seconds at a flow rate of 10 μL/min. […] The sensorchip surface was regenerated with three 30 second pulses of 3M MgCl₂ at a flow rate of 50 μL/minute. All injections used HBS-EP+ as both the running and sample buffer and were performed at 25° C. with a data collection rate of 1 Hz. Sensorgrams were double referenced by using both a control surface and buffer injections. Rate constants were determined by fitting the data to a 1:1 model with Biacore T200 evaluation software v3.0 and the equation KD=kd/kₐ.

[3] = molecular target: T3, recombinant cynomolgus monkey CDCP1 extracellular domain (cynomolgus monkey, UniProt A0A2K5VLA8 30-663); test: as above
T3 construct: range 30-663; also called cyno CDCP1 ECD; cynomolgus monkey CDCP1-ECD
T3 sequence (A0A2K5VLA8 entry or part of it): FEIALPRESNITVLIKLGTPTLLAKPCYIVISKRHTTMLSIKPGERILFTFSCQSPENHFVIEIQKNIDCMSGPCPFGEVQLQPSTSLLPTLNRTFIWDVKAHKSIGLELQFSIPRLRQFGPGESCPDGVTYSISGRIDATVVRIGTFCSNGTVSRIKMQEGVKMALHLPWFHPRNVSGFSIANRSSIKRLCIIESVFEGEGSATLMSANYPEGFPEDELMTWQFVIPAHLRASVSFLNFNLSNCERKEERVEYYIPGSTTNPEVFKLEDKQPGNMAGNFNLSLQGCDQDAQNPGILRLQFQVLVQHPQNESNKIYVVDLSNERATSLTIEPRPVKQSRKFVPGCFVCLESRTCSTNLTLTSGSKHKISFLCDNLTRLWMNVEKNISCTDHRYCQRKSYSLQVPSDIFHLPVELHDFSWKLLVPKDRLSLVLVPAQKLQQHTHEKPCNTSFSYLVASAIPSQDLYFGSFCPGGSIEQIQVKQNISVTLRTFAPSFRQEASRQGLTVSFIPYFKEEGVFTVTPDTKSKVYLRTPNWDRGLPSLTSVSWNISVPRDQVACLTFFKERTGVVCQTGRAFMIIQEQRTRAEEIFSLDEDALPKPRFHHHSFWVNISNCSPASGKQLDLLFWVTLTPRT
Protocol: as §2

[4] = molecular target: T1, CDCP1 expressed on the surface of human …; test: flow cytometry on H1299 cells (NSCLC), anti-human IgG Fc R-PE detection
Protocol: as §1

[5] = molecular target: T1, CDCP1 expressed on the surface of human …; test: flow cytometry on PC3 cells (prostate cancer), anti-human IgG Fc R-PE detection
Protocol: as §1

[6] = molecular target: T2, recombinant human CDCP1 extracellular …; test: SPR (Biacore T200), antibody captured on anti-human IgG, CDCP1-ECD injected
Protocol: as §2

[7] = molecular target: T3, recombinant cynomolgus monkey CDCP1 …; test: as above
Protocol: as §2

[8] = molecular target: T1, CDCP1 expressed on the surface of human …; test: competition FACS on PC3 cells; competitor: biotinylated CP13E10 reporter at 1.5 µg/mL, streptavidin-PE detection
Protocol: For this competition FACS assay procedure, PC3 cells were detached from flasks using cell dissociation buffer (Gibco, catalog number 13151-014), washed once with ice-cold FACS buffer (PBS-CMF pH 7.2+3% FBS+0.1% sodium azide) and 2.5×10⁵ cells in 50 μl buffer were added to each well in 96-well V-bottom plates (Corning catalog number 3894). […] Next, the cells were washed twice with FACS buffer. Streptavidin-PE (Invitrogen/eBioscience catalog number 12-4317-87) diluted 1:200 was added and incubated for 30 minutes at room temperature. The cells were washed twice with FACS buffer and were fixed on ice for 15 minutes by adding 100 μl of BD Cytofix (BD Biosciences catalog number 554655) to each well. The cells were washed twice with FACS buffer.

[9] = molecular target: T1, CDCP1 expressed on the surface of human …; test: competition FACS on PC3 cells; competitor (reporter) biotinylated CP13E10
[10] = molecular target: T2, recombinant human CDCP1 extracellular …; test: competition ELISA of Example 7 on CDCP1-ECD (biotinylated CP13E10-54HC-89LC reporter as described there; the reporter is not named on the sheet)
Protocol: The CDCP1-ECD protein was diluted to 1 μg/ml in PBS-CMF pH 7.2, 100 μl was added to each well of the plate, and the plate was incubated overnight at 4° C. The contents of the plate were discarded and then the plate was blocked with PBS-CMF pH7.2+0.02% casein for 3 hours at room temperature. […] The wells were washed four times with PBS-CMF pH7.2+0.03% tween-20. Streptavidin-HRP (catalog #7100-05, Southern Biotech, (Birmingham, Alabama) diluted 1:10,000 was added and incubated for 30 minutes at room temperature. The wells were washed four times with PBS-CMF pH 7.2+0.03% tween-20 and then TMB (BioFx) was added. The reaction developed for 5 to 10 minutes and was then quenched with 0.18 N H₂SO₄. The absorbance at 450 nm was determined and the results are shown in FIG. 7.

[11] = molecular target: T2, recombinant human CDCP1 extracellular …; test: SPR, Biacore T200
Protocol: as §2

[12] = molecular target: T3, recombinant cynomolgus monkey CDCP1 …; test: SPR, Biacore T200
Protocol: as §2

[13] = molecular target: T1, CDCP1 expressed on the surface of human …; test: immunoprecipitation: antibody 76 (20 ng/ml) added to intact PC3 cells (80 min, 4 °C), Western blot
[14] = molecular target: T1, CDCP1 expressed on the surface of human …; test: immunoprecipitation: antibody 24 (5 µg/ml) added to intact PC3 cells (80 min, 4 °C), Western blot

B1: CP13E10-54HC-89LC (antibody, human IgG1, kappa, V domains shown)
VH: EVQLVQSGAEVKKPGASVKVSCKASGYTFTSYYMHWVRQAPGQGLEWMGIINPSGGSTSYAQKFQGRVTMTRDTSTSTVYMELSSLRSEDTAVYYCARDGELRHFDHLLDYHYYMDVWGQGTTVTVSS
VL: EIVLTQSPATLSLSPGERATLSCRASQSVGSYLAWYQQRPGQAPRLLIYDASNRATGIPARFSGSGSGTDFTLTISSLEPEDFAVYYCQQRAQEFTFGQGTKVEIKR
notes: Human IgG1, kappa; Alexa Fluor 647 conjugated in the internalization assay; also called CP13E10-54VH-89VL
EC50 [1]: 0.77 nM
Kd [2]: 42 nM
Kd [3]: 63.4 nM
EC50 [4]: 0.73 nM
EC50 [5]: 1.69 nM
Kd [6]: 52.9 nM
Kd [7]: 79.9 nM

B2: CP13E10-54 variant (antibody, human IgG1, kappa, V domains shown)
VH: EVQLVQSGAEVKKPGASVKVSCKASGYTFTSYYMHWVRQAPGQGLEWMGIINPSGGSTSYAQKFQGRVTMTRDTSTSTVYMELSSLRSEDTAVYYCARDGELRHFDHLLDYHYYMDVWGQGTTVTVSS
VL: EIVLTQSPATLSLSPGERATLSCRASQSVGSYLAWYQQRPGQAPRLLIYDASNRATGIPARFSGSGSGTDFTLTISSLEPEDFAVYYCQQRANVFTFGQGTKVEIKR
IC50 (read off the curve) [8]: ~9 nM

B3: CP13E10-34 variant (antibody, V domains shown)
VH: EVQLVQSGAEVKKPGASVKVSCKASGYTFTSYYMHWVRQAPGQGLEWMGIINPSGGSTSYAQKFQGRVTMTRDTSTSTVYMELSSLRSEDTAVYYCARDGVLRHFDHLLDYHYYMDVWGKGTTVTVSS
VL: EIVLTQSPATLSLSPGERATLSCRASQSVGSYLAWYQQRPGQAPRLLIYDASNRATGIPARFSGSGSGTDFTLTISSLEPEDFAVYYCQQRANVFTFGQGTKVEIKR
Kd [6]: 607 nM
fold lower binding relative to parental CP13E10 [9]: > 7 fold

B4: CP13E10-54HCv13-89LCv1 (antibody, human IgG1, kappa, V domains shown)
VH: EVQLVQSGAEVKKPGASVKVSCKASGYTFTSYYMHWVRQAPGQGLEWMGIINPSGGSTSYAQKFQGRVTMTRDTSTSTVYMELSSLRSEDTAVYYCARDAELRHFDHLLDYHYYMDVWGQGTTVTVSS
VL: EIVMTQSPATLSLSPGERATLSCRASQSVGSYLAWYQQKPGQAPRLLIYDASNRATGIPARFSGSGSGTDFTLTISSLQPEDFAVYYCQQRAQEFTFGQGTKVEIKR
IC50 (read off the curve) [10]: ~5 nM

B5: CP13E10 (antibody, human IgG1, kappa, V domains shown)
VH: EVQLVQSGAEVKKPGASVKVSCKASGYTFTSYYMHWVRQAPGQGLEWMGIINPSGGSTSYAQKFQGRVTMTRDTSTSTVYMELSSLRSEDTAVYYCARDGVLRYFDWLLDYYYYMDVWGKGTTVTVSS
VL: EIVLTQSPATLSLSPGERATLSCRASQSVGSYLAWYQQRPGQAPRLLIYDASNRATGIPARFSGSGSGTDFTLTISSLEPEDFAVYYCQQRANVFTFGQGTKVEIKR
notes: Human IgG1, kappa; Heavy chain can be prepared with or without the C-terminal lysine; also called CP13E10-WT; parental CP13E10 antibody
Kd [6]: 219 nM
Kd [7]: 232 nM
IC50 (read off the curve) [8]: ~7 nM

B6: CP13E10-291 (antibody, human IgG1, kappa, V domains shown)
VH: EVQLVQSGAEVKKPGASVKVSCKASGYTFTSYYMHWVRQAPGQGLEWMGIINPSGGSTSYAQKFQGRVTMTRDTSTSTVYMELSSLRSEDTAVYYCARDGELRHFDQVYNYHYYMDVWGQGTTVTVSS
VL: EIVLTQSPATLSLSPGERATLSCRASQSVGSYLAWYQQRPGQAPRLLIYDASNRATGIPARFSGSGSGTDFTLTISSLEPEDFAVYYCQQRANVFTFGQGTKVEIKR
notes: Human IgG1, kappa
fold increase in affinity relative to CP13E10-34 [11]: > 200 fold
fold increase in binding relative to CP13E10-WT [12]: > 70 fold
Kd [6]: 2.9 nM
Kd [7]: 3.12 nM

B7: antibody 76 (antibody, human IgG1, lambda, V domains shown)
VH: QVQLVQSGAEVKKPGSSVKVSCKASGGTFSSYAISWVRQAPGQGLEWMGGIIPIFGTANYAQKFQGRVTITADKSTSTAYMELSSLRSEDTAVYYCARDPTYFDWTRRGYYYMDVWGKGTTVTVSS
VL: SYELTQPPSVSVSPGQTARITCSGDALPKKYAFWYQQKSGQAPVLVIYEDSKRPSGIPEKFSGSSSGTMATLTISGAQVEDEADYYCYSTDSSDNPRGVFGGGTKLTVLG
notes: Human IgG1, lambda
binding result [13]: binds

B8: antibody 24 (antibody, human IgG1, kappa, V domains shown)
VH: QVQLVESGGGVVQPGRSLRLSCAASGFTFSSYGMHWVRQAPGKGLEWVAVISYDGSNKYYADSVKGRFTISRDNSKNTLYLQMNSLRAEDTAVYYCARGVGLPDIWGQGTMVTVSS
VL: EIVMTQSPDTLSLSPGERATLSCRASQKIYYSYLAWYQQKPGQAPRLLISGASTRASDISDRFSGGGSGTDFTLTINSLESEDAAVYYCQQYDSLPVTFGRGTKLEIKR
notes: Human IgG1, kappa
binding result [14]: binds
